In paper PMC6189472 one finds fraction of CD6-GFP immobilized on 10 and 100% αCD3 spots and fold enrichment data, which are given here for one molecule.

For experiment [1], the target named is TCR/CD3 complex (human (endogenous in Jurkat)) (UniProt P07766). The experiment is described as follows: FRAP on micropatterned antibody spots; CD6-GFP Jurkat T cells on spots of 100, 10 or 1% anti-CD3 surrounded by fibronectin; 37 C; circular ROI of 2.1 um on spots and on surrounding fibronectin; single exponential fit.
UniProt P07766, sequence (P07766 whole entry, looked up, one chain of several): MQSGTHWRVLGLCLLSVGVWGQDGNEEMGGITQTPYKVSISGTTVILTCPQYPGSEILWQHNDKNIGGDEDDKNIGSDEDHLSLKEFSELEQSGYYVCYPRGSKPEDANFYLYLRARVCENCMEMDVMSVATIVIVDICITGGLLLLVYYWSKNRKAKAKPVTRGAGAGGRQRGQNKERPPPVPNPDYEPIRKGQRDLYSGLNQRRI
For experiment [2] the target is unchanged. Nature of the experiment: recruitment to antibody-coated beads (confocal microscopy); CD6-GFP Jurkat T cells on fibronectin-coated coverslips with 4.5 um anti-CD3-coated (Dynal CD3) or fibronectin-coated beads; live cells at RT; CD6-GFP intensity at bead contact against the opposite side of the cell.

B1: CD6-GFP (receptor)
chain: HPSPAPPDQLNTSSAESELWEPGERLPVRLTNGSSSCSGTVEVRLEASWEPACGALWDSRAAEAVCRALGCGGAEAASQLAPPTPELPPPPAAGNTSVAANATLAGAPALLCSGAEWRLCEVVEHACRSDGRRARVTCAENRALRLVDGGGACAGRVEMLEHGEWGSVCDDTWDLEDAHVVCRQLGCGWAVQALPGLHFTPGRGPIHRDQVNCSGAEAYLWDCPGLPGQHYCGHKEDAGAVCSEHQSWRLTGGADRCEGQVEVHFRGVWNTVCDSEWYPSEAKVLCQSLGCGTAVERPKGLPHSLSGRMYYSCNGEELTLSNCSWRFNNSNLCSQSLAARVLCSASRSLHNLSTPEVPASVQTVTIESSVTVKIENKESRELMLLIPSIVLGILLLGSLIFIAFILLRIKGKYALPVMVNHQHLPTTIPAGSNSYQPVPITIPKEVFMLPIQVQAPPPEDSDSGSDSDYEHYDFSAQPPVALTTFYNSQRHRVTDEEVQQSRFQMPPLEEGLEELHASHIPTANPGHCITDPPSLGPQYHPRSNSESSTSSGEDYCNSPKSKLPPWNPQVFSSERSSFLEQPPNLELAGTQPAFSAGPPADDSSSTSSGEWYQNFQPPPQPPSEEQFGCPGSPSPQPDSTDNDDYDDISAA
In turn, B1 had a fraction of CD6-GFP immobilized on 10 and 100% αCD3 spots in experiment [1] of 30%. In addition, the fold enrichment at αCD3-coated beads against fibronectin-coated beads in experiment [2] is 3 fold.
